# According to US20220363748A1 (AstraZeneca / MedImmune, published 2022):
# Where a chain is given by its changes, count along the chain named.
# T1: ST2S-Fc-His6 fusion protein (human, UniProt Q01638 19-328)
# T1 construct: CD33 signal peptide used for secretion, not part of the protein; also called soluble human ST2S extracellular domain fused to human IgG1 Fc-His6; human ST2 ECD
# T1 sequence: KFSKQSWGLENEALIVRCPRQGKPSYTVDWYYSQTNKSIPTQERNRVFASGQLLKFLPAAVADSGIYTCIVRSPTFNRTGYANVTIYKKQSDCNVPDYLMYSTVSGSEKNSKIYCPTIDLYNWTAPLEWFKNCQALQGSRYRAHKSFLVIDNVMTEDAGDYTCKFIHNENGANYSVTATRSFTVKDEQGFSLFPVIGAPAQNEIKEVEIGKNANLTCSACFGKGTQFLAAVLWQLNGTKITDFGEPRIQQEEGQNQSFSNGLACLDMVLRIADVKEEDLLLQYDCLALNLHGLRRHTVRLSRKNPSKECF
# B1: HMGB1 (R&D systems 1690-HMB-050), biotinylated (ligand, UniProt P09429 1-215, looked up)
# chain: MGKGDPKKPRGKMSSYAFFVQTCREEHKKKHPDASVNFSEFSKKCSERWKTMSAKEKGKFEDMAKADKARYEREMKTYIPPKGETKKKFKDPNAPKRPPSAFFLFCSEYRPKIKGEHPGLSIGDVAKKLGEMWNNTAADDKQPYEKKAAKLKEKYEKDIAAYRAKGKPDAAKKGVVKAEKSKKKKEEEEDEEDEEDEEEEEDEEDEDEEEDDDDE
# modifications: biotinylated via free amines (EZ link Sulfo-NHS-LC-Biotin)
# B2: IL-33[C->S] (ligand)
# cytokine: MHHHHHHHHHHAAGLNDIFEAQKIEWHEAAIEGRSITGISPITEYLASLSTYNDQSITFALEDESYEIYVEDLKKDEKKDKVLLSYYESQHPSNESGDGVDGKMLMVTLSPTKDFWLHANNKEHSVELHKSEKPLPDQAFFVLHNMHSNSVSFESKTDPGVFIGVKDNHLALIKVDSSENLSTENILFKLSET
# modifications: biotinylated at the Avitag with BirA
# notes: also called IL33-16
# B3: Biotinylated EGF (Thermo) (ligand, UniProt P01133 971-1023, looked up)
# chain: NSDSECPLSHDGYCLHDGVCMYIEALDKYACNCVVGYIGERCQYRDLKWWELR
# modifications: biotinylated (bought so)
# B4: Untagged IL33-01 (reduced IL-33) (ligand)
# chain: SITGISPITEYLASLSTYNDQSITFALEDESYEIYVEDLKKDEKKDKVLLSYYESQHPSNESGDGVDGKMLMVTLSPTKDFWLHANNKEHSVELHKCEKPLPDQAFFVLHNMHSNCVSFECKTDPGVFIGVKDNHLALIKVDSSENLCTENILFKLSET
# notes: also called redIL-33; wild type IL-33
# B5: Avitag_IL-33-01 (oxidised IL-33), biotinylated (ligand)
# chain: B2 cytokine with S131C, S150C, S155C, S182C
# modifications: biotinylated on the Avitag with BirA; oxidised (disulphide bonded) form of IL-33
# notes: also called oxIL-33; oxidised IL-33-01
# Assays:
# [1] = biological target: T2, RAGE-Fc (R&D Systems #1145-RG) (UniProt Q15109 24-344); test: ELISA: biotinylated antigen on streptavidin plate, RAGE-Fc at 10 µg/mL, detection with anti-human IgG HRP
# T2 construct: Bought reagent; not shown: Fc part of the bought fusion; detected with anti-human IgG
# Protocol: (§1) Plates were washed 3×with 200 μl PBS-T (PBS +1% (v/v) Tween-20) and blocked with 300 μl/well blocking buffer (PBS with 1% BSA (Sigma, A9576)) for 1 hour. […] Plates were washed with 200 μl PBS-T three times. […] Plates were washed 3×with PBS-T and developed with TMB, 100 μl/well (Sigma, T0440). The reaction was quenched with 50 μl/well 0.1 M H2504. Absorbance was read at 450nm on the Cytation Gen5 or similar equipment.
# [2] = biological target: T3, EGFR-Fc (R&D Systems #344-ER-050) (UniProt P00533 25-645); test: ELISA: biotinylated antigen on streptavidin plate, EGFR-Fc, detection with anti-human IgG HRP
# T3 construct: Bought reagent; not shown: Fc part of the bought fusion; detected with anti-human IgG
# Protocol: as §1
# [3] = biological target: T2, RAGE-Fc (R&D Systems #1145-RG); test: ELISA: biotinylated antigen on streptavidin plate, RAGE-Fc, detection with anti-human IgG HRP
# Protocol: as §1
# [4] = biological target: T3, EGFR-Fc (R&D Systems #344-ER-050); test: ELISA: biotinylated antigen on streptavidin plate, EGFR-Fc with or without untagged RAGE, detection with anti-human IgG HRP
# Protocol: as §1
# [5] = biological target: T1, ST2S-Fc-His6 fusion protein; test: depletion of remaining reduced IL-33 from the oxIL-33 preparation, in solution, then size exclusion
# [6] = biological target: T2, RAGE-Fc (R&D Systems #1145-RG); test: ELISA: biotinylated oxIL-33 on streptavidin plate, RAGE-Fc 10 µg/mL, anti-human IgG HRP
# Protocol: as §1
# T2 sequence (Q15109 24-344 limits assumed): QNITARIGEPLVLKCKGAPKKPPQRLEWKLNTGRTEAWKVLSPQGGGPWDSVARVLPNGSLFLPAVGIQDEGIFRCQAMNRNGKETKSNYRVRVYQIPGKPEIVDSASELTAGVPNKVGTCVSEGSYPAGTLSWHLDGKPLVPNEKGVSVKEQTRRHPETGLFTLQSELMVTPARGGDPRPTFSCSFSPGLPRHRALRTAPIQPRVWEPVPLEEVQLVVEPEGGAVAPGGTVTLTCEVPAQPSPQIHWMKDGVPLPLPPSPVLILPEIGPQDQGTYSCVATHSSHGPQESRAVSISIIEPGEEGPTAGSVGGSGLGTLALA
binder,measurement,setting,value
B1,binding result,[1],binds
same,binding result,[2],no binding
B2,binding result,[3],no binding
same,binding result,[4],no binding
B3,binding result,[3],no binding
B4,binding result,[5],binds
B5,binding result,[6],binds
